According to patent US20220041738A1 (SAITAMA MEDICAL UNIVERSITY, published 2022):

T1: human ALK2 extracellular domain with C-terminal His tag (E. coli) (human, UniProt Q04771 21-123)
T1 construct: Expressed in E. coli SHuffle T7, purified to a single band of 12 kDa; also called ALK2-ECD; human ALK2-ECD; not shown: C-terminal His tag from pET-28b(+)
T1 sequence: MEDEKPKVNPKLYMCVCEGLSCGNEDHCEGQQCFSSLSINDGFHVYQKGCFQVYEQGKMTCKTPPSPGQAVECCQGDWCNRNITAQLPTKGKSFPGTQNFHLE

T2: Recombinant Human ALK2 Fc Chimera (Sino Biological Inc.) (human, UniProt Q04771 21-123)
T2 construct: Bought product; not shown: Fc of the bought chimera
T2 sequence: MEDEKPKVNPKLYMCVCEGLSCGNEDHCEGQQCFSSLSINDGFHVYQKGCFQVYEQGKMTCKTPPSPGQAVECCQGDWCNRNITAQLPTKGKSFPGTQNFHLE


Each binder was assayed against T1, human ALK2 extracellular domain with … (assay: SPR, Biacore T200; antibody captured from culture supernatant by anti-human IgG (Fc), antigen as analyte; 1:1 binding model).
Protocol: The dissociation constants of the humanized A2-11E antibodies (IgG1) and the humanized A2-25C antibodies (IgG1) prepared in Example 18)-5 for the antigen (human ALK2 extracellular domain prepared in Example 14)-1) were measured using Biacore T200 (GE Healthcare Bio-Sciences Corp.) by the capture method which involves capturing each antibody as a ligand onto an immobilized anti-human IgG (Fc) antibody and assaying the antigen as an analyte. Approximately 1000 RU of the anti-human IgG (Fc) antibody (Human Antibody Capture kit, GE Healthcare Bio-Sciences Corp.) was covalently bound to a sensor chip CM5 (GE Healthcare Bio-Sciences Corp.) by the amine coupling method. Similarly, this antibody was immobilized onto a reference cell. The running buffer used was HBS-EP+(10 mM HEPES (pH 7.4), 0.15 M NaCl, 3 mM EDTA, and 0.05% Surfactant P20). The culture supernatant containing the antibody was added onto the anti-human IgG (Fc) antibody-immobilized chip for approximately 1 minute. Then, serially diluted solutions (0.78 to 200 nM) of the antigen were added thereto at a flow rate of 30 μl/min for 300 seconds. Subsequently, the dissociation phase was monitored for 600 seconds. 3 M MgCl₂ was added thereto as a regenerating solution at a flow rate of 10 μl/min for 30 seconds. The data was analyzed using 1:1 binding models of analytical software (BIAevaluation software, version 1.0) to calculate an association rate constant ka, a dissociation rate constant kd, and a dissociation constant (KD; KD=kd/ka).

Binder	Kd
humanized hA2-11E-H3/L3 (antibody, human IgG1, kappa, V domains shown, Human IgG1, kappa; used as culture supernatant of FreeStyle 293F cells) VH: EVQLVESGGGLVQPGGSLRLSCAASGFTFSNYYMYWIRQAPGKGLEWVSSINTDGGSTYYADSVKGRFTISRDNSKNTVYLQMNSLRAEDTAVYYCAKSTPNIPLAYWGQGTLVTVSS VL: DIQMTQSPSSLSASVGDRVTITCKASQNIYKYLNWFQQKPGKAPKLLIYYSNSLQTGIPSRFSGSGSGTDFTLTISSLQPEDFATYYCFQYSSGPTFGQGTKVEIKR	47.4 nM
humanized hA2-11E-H3/L2 (antibody, human IgG1, kappa, V domains shown, Human IgG1, kappa; used as culture supernatant of FreeStyle 293F cells) VH: EVQLVESGGGLVQPGGSLRLSCAASGFTFSNYYMYWIRQAPGKGLEWVSSINTDGGSTYYADSVKGRFTISRDNSKNTVYLQMNSLRAEDTAVYYCAKSTPNIPLAYWGQGTLVTVSS VL: DIQMTQSPSSLSASVGDRVTITCKASQNIYKYLNWFQQKPGKAPKLLIYYSNSLQTGVPSRFSGSGSGTDFTLTISSLQPEDFATYYCFQYSSGPTFGQGTKVEIKR	63.1 nM
humanized hA2-25C-H3/L2 (antibody, human IgG1, kappa, V domains shown, Human IgG1, kappa; used as culture supernatant of FreeStyle 293F cells) VH: EVQLVESGGGLVQPGGSLRLSCAASGFTFSYYAMSWVRQAPGKGLEWVASISRGGDNTYYRDSVKGRFTTSRDNSKNTLYLQMNSLRAEDTAVYYCARLNYNNYFDYWGQGTLVTVSS VL: DIQMTQSPSSLSASVGDRVTITCQASQDIGNWLSWYQQKPGKAPKLLIYGATSLADGVPSRFSGSRSGTDYTLTISSLQPEDFATYYCLQAYSAPFTFGQGTKVEIKR	53.3 nM
humanized hA2-25C-H4/L1 (antibody, human IgG1, kappa, V domains shown, Human IgG1, kappa; used as culture supernatant of FreeStyle 293F cells) VH: EVQLVESGGGLVQPGGSLRLSCAASGFTFSYYAMSWVRQAPGKGLEWVASISRGGDNTYYRDSVKGRFTTSRDNSKNTLYLQMNSLRAEDTATYYCARLNYNNYFDYWGQGVLVTVSS VL: DIQMTQSPSSLSASVGDRVTITCQASQDIGNWLSWYQQKPGKAPKLLIYGATSLADGVPSRFSGSGSGTDFTLTISSLQPEDFATYYCLQAYSAPFTFGQGTKVEIKR	81.8 nM
humanized hA2-25C-H4/L2 (antibody, human IgG1, kappa, V domains shown, Human IgG1, kappa; used as culture supernatant of FreeStyle 293F cells) VH: EVQLVESGGGLVQPGGSLRLSCAASGFTFSYYAMSWVRQAPGKGLEWVASISRGGDNTYYRDSVKGRFTTSRDNSKNTLYLQMNSLRAEDTATYYCARLNYNNYFDYWGQGVLVTVSS VL: DIQMTQSPSSLSASVGDRVTITCQASQDIGNWLSWYQQKPGKAPKLLIYGATSLADGVPSRFSGSRSGTDYTLTISSLQPEDFATYYCLQAYSAPFTFGQGTKVEIKR	56.7 nM

Further lines, results first:

Kd	Binder
31.3 nM	humanized hA2-11E-H3/L4 (antibody, human IgG1, kappa, V domains shown, Human IgG1, kappa; used as culture supernatant of FreeStyle 293F cells) VH: EVQLVESGGGLVQPGGSLRLSCAASGFTFSNYYMYWIRQAPGKGLEWVSSINTDGGSTYYADSVKGRFTISRDNSKNTVYLQMNSLRAEDTAVYYCAKSTPNIPLAYWGQGTLVTVSS VL: DIQMTQSPSSLSASVGDRVTISCKASQNIYKYLNWFQQKPGEAPKLLIYYSNSLQTGIPSRFSGSGSGTDFTLTISSLQPEDFAIYFCFQYSSGPTFGPGTKVEIKR
19.9 nM	humanized hA2-11E-H4/L2 (antibody, human IgG1, kappa, V domains shown, Human IgG1, kappa; used as culture supernatant of FreeStyle 293F cells) VH: EVQLVESGGGLVQPGGSLRLSCAASGFTFSNYYMYWIRQAPGKGLEWISSINTDGGSTYYPDSVKGRFTISRDNSKNTVYLQMNSLRAEDTAVYYCAKSTPNIPLAYWGQGTLVTVSS VL: DIQMTQSPSSLSASVGDRVTITCKASQNIYKYLNWFQQKPGKAPKLLIYYSNSLQTGVPSRFSGSGSGTDFTLTISSLQPEDFATYYCFQYSSGPTFGQGTKVEIKR
18.5 nM	humanized hA2-11E-H4/L3 (antibody, human IgG1, kappa, V domains shown, Human IgG1, kappa; used as culture supernatant of FreeStyle 293F cells) VH: EVQLVESGGGLVQPGGSLRLSCAASGFTFSNYYMYWIRQAPGKGLEWISSINTDGGSTYYPDSVKGRFTISRDNSKNTVYLQMNSLRAEDTAVYYCAKSTPNIPLAYWGQGTLVTVSS VL: DIQMTQSPSSLSASVGDRVTITCKASQNIYKYLNWFQQKPGKAPKLLIYYSNSLQTGIPSRFSGSGSGTDFTLTISSLQPEDFATYYCFQYSSGPTFGQGTKVEIKR
11.1 nM	humanized hA2-11E-H4/L4 (antibody, human IgG1, kappa, V domains shown, Human IgG1, kappa; used as culture supernatant of FreeStyle 293F cells) VH: EVQLVESGGGLVQPGGSLRLSCAASGFTFSNYYMYWIRQAPGKGLEWISSINTDGGSTYYPDSVKGRFTISRDNSKNTVYLQMNSLRAEDTAVYYCAKSTPNIPLAYWGQGTLVTVSS VL: DIQMTQSPSSLSASVGDRVTISCKASQNIYKYLNWFQQKPGEAPKLLIYYSNSLQTGIPSRFSGSGSGTDFTLTISSLQPEDFAIYFCFQYSSGPTFGPGTKVEIKR
116 nM	humanized hA2-25C-H3/L1 (antibody, human IgG1, kappa, V domains shown, Human IgG1, kappa; used as culture supernatant of FreeStyle 293F cells) VH: EVQLVESGGGLVQPGGSLRLSCAASGFTFSYYAMSWVRQAPGKGLEWVASISRGGDNTYYRDSVKGRFTTSRDNSKNTLYLQMNSLRAEDTAVYYCARLNYNNYFDYWGQGTLVTVSS VL: DIQMTQSPSSLSASVGDRVTITCQASQDIGNWLSWYQQKPGKAPKLLIYGATSLADGVPSRFSGSGSGTDFTLTISSLQPEDFATYYCLQAYSAPFTFGQGTKVEIKR
64.4 nM	humanized hA2-25C-H3/L3 (antibody, human IgG1, kappa, V domains shown, Human IgG1, kappa; used as culture supernatant of FreeStyle 293F cells) VH: EVQLVESGGGLVQPGGSLRLSCAASGFTFSYYAMSWVRQAPGKGLEWVASISRGGDNTYYRDSVKGRFTTSRDNSKNTLYLQMNSLRAEDTAVYYCARLNYNNYFDYWGQGTLVTVSS VL: DIQMTQSPSSLSASVGDRVTITCQASQDIGNWLSWYQQKPGKSPKLLIYGATSLADGVPSRFSGSRSGTQYTLTISSLQPEDFATYYCLQAYSAPFTFGSGTKVEIKR
27.9 nM	humanized hA2-25C-H4/L3 (antibody, human IgG1, kappa, V domains shown, Human IgG1, kappa; used as culture supernatant of FreeStyle 293F cells) VH: EVQLVESGGGLVQPGGSLRLSCAASGFTFSYYAMSWVRQAPGKGLEWVASISRGGDNTYYRDSVKGRFTTSRDNSKNTLYLQMNSLRAEDTATYYCARLNYNNYFDYWGQGVLVTVSS VL: DIQMTQSPSSLSASVGDRVTITCQASQDIGNWLSWYQQKPGKSPKLLIYGATSLADGVPSRFSGSRSGTQYTLTISSLQPEDFATYYCLQAYSAPFTFGSGTKVEIKR

These binders were tested against T2, Recombinant Human ALK2 Fc Chimera (Sino …) (assay: SPR, Biacore T200; antigen immobilised on CM5 chip, antibody as analyte; bivalent binding model).
Protocol: The dissociation constants of humanized hA2-15A-H4/L6, humanized hA2-27D-H2/L2, and humanized hA2-27D-H3/L4 prepared in Example 8)-5 for the antigen (Recombinant Human ALK2 Fc Chimera, Sino Biological Inc.) were measured in Biacore T200 (GE Healthcare Bio-Sciences Corp.) by using the antigen immobilized as a ligand and each antibody as an analyte. The antigen was added at 1.25 μg/mL for 60 seconds and immobilized onto a sensor chip CM5 (GE Healthcare Bio-Sciences Corp.). The running buffer used was HBS-EP+(10 mM HEPES (pH 7.4), 0.15 M NaCl, 3 mM EDTA, and 0.05% Surfactant P20). Serially diluted solutions (0.2 to 50 nM) of the antibody were added onto the antigen-immobilized chip at a flow rate of 30 μl/min for 300 seconds. Subsequently, the dissociation phase was monitored for 1800 seconds. A 10 mM glycine/hydrochloric acid solution (pH 1.5) was added thereto as a regenerating solution at a flow rate of 10 μl/min for 30 seconds twice. The data was analyzed using bivalent binding models of analytical software (BIAevaluation software, version 1.0) to calculate an association rate constant ka, a dissociation rate constant kd, and a dissociation constant (KD; KD=kd/ka).

Binder	Kd
humanized hA2-27D-H2/L2 (antibody, human IgG1, Human IgG1, kappa; also called humanized A2-27D antibody (IgG1)) heavy: not shown light: EIVLTQSPGTLSLSPGERATLSCLASSSVSYMTWYQQKPGQSPRLWIYGTSNLASGVPDRFSGSGSGTDFTLTISRLEPEDFAVYYCLHLTSYPPYTFGQGTKVEIKRAVAAPSVFIFPPSDEQLKSGTASVVCLLNNFYPREAKVQWKVDNALQSGNSQESVTEQDSKDSTYSLSSTLTLSKADYEKHKVYACEVTHQGLSSPVTKSFNRGEC	5.7 nM
humanized hA2-27D-H3/L4 (antibody, human IgG1, Human IgG1, kappa; also called humanized A2-27D antibody (IgG1)) heavy: not shown light: EIVLTQSPGTMSASPGERVTLSCLASSSVSYMTWYQQKPGASPRLWIYGTSNLASGVPDRFSGSGSGTDYTLTISRMEPEDFATYYCLHLTSYPPYTFGAGTKLELKRAVAAPSVFIFPPSDEQLKSGTASVVCLLNNFYPREAKVQWKVDNALQSGNSQESVTEQDSKDSTYSLSSTLTLSKADYEKHKVYACEVTHQGLSSPVTKSFNRGEC	4.3 nM
humanized hA2-15A-H4/L6 (antibody, human IgG1, Human IgG1, kappa; also called humanized A2-15A antibody (IgG1)) heavy: not shown light: DIVLTQSPDSLAVSLGERATINCRANQGVSLSRYNLMHWYQQKPGQKPKLLIYRSSNLAQGIPARFSGSGSGTDFTLTISSVQADDIAVYYCQQSRESPFTFGQGTKLELKRAVAAPSVFIFPPSDEQLKSGTASVVCLLNNFYPREAKVQWKVDNALQSGNSQESVTEQDSKDSTYSLSSTLTLSKADYEKHKVYACEVTHQGLSSPVTKSFNRGEC	4.3 nM
